Measurements as given in the supplement of paper PMC10201428.
± gives the standard deviation of the averaged measurements.

Experiments:
[1] = system: VchCAST RNA-guided transposition machinery (E. coli BL21(DE3) host, lacZ target); assay: relative integration efficiency (T-LR orientation) vs wild-type transposon end (log2 (normalized fold change)); transposon end mutated: right end (5 bp flank + 75 bp right end); higher = more efficient transposition
Protocol: (§1)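 Pooled, barcoded VchCAST (Tn6677) mini-transposon donor libraries; each variable transposon-end sequence sits in a fixed pDonor mini-transposon context (10-bp barcode and cargo not included). Left- or right-end libraries were co-transformed with pEffector (TniQ-Cascade, TnsABC, lacZ crRNA, T7, 0.1 mM IPTG) into E. coli BL21(DE3) and grown 18 h at 37 C. T-LR and T-RL junction amplicons were sequenced; output/input barcode fold change was normalised to the mean of four wild-type barcodes and log2-transformed. Two biological replicates; zero-count/undetected variants carry floor values (-10 / -15), censored here. Barcode uncoupling by PCR recombination adds noise.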

[2] = system: VchCAST RNA-guided transposition machinery (E. coli BL21(DE3) host, lacZ target); assay: relative integration efficiency (T-RL orientation) vs wild-type transposon end (log2 (normalized fold change)); transposon end mutated: right end (5 bp flank + 75 bp right end); higher = more efficient transposition
Protocol: as §1

Row | Sequence | relative integration efficiency (log2) [1] | relative integration efficiency (log2) [2]
1 | ACATTAGTGGATACAACCATAAAATGATAATTACACCCATAAATTCATAATTATCACACCCAATTTAACTATAACGCTCTGATCATAGTCAGACCAACATTGCTACGACCCGTATTCGCACCGACAC | -5.23 ± 1.8 | -7.6 ± 0.5
2 | ACATTAGTGGATACAACCATAAAATGATAATTACACCCATAAATTCATCATTATCACACCCAATTTAACTATAACGCTCTGATCATAGTCAGACCAACATTGCTACGACCCGTATTCGCACCGACAC | -4.73 ± 0.58 | -7.21 ± 0.51
3 | ACATTAGTGGATACAACCATAAAATGATAATTACACCCATAAATTGATAATTATCACACCCAATTTAACTATAACGCTCTGATCATAGTCAGACCAACATTGCTACGACCCGTATTCGCACCGACAC | -3.09 ± 0.75 | -5.98 ± 0.27
4 | ACATTAGTGGATACAACCATAAAATGATAATTACACCCATAAATTGATCATTATCACACCCAATTTAACTATAACGCTCTGATCATAGTCAGACCAACATTGCTACGACCCGTATTCGCACCGACAC | -5.22 ± 1.2 | -7.5 ± 0.15
5 | ACATTAGTTCATACAACCATAAAATGATAATTACACCCATAAATGGATAATTATCACACCCAATTTAACTATAACGCTCTGATCATAGTCAGACCAACATTGCTACGACCCGTATTCGCACCGACAC | -3.62 ± 0.12 | -6.74 ± 0.15
6 | ACATTAGTTCATACAACCATAAAATGATAATTACACCCATAAATGGATCATTATCACACCCAATTTAACTATAACGCTCTGATCATAGTCAGACCAACATTGCTACGACCCGTATTCGCACCGACAC | -7.73 ± 1.7 | -7.359 ± 0.025
7 | ACATTTGTTGATACAACCATATTTACATAATTACACCCATATTAACATAATTATCACACCCATATTAACATATTGCCTCTGATCATAGTCAGACCAACATTGCTACGACCCGTATTCGCACCGACAC | – | -7.03 ± 0.43
8 | ACATTTGTTGATACAACCATCCCCGTCGCCGGCACAAACGCCCGGTCGCCGGCGACACAAACGCCCGGTCGCGGTAAGAGGATCATAGTCAGACCAACATTGCTACGACCCGTATTCGCACCGACAC | – | -7.485 ± 0.063
9 | ACATTTGTTGATACAACCCGCCCCGTCGCCGGCACAAACGCCCGGTCGCCGGCGACACAAACGCCCGGTCGCGGTAAGAGGATCATAGTCAGACCAACATTGCTACGACCCGTATTCGCACCGACAC | – | -8.51 ± 0.73
10 | ACATTTGTTGATACCCAACGCCCCGTCGCCGGCACAAACGCCCGGTCGCCGGCGACACAAACGCCCGGTCGCGGTAAGAGGATCATAGTCAGACCAACATTGCTACGACCCGTATTCGCACCGACAC | – | -6.49 ± 0.44
11 | ACATTTGTTGATAGTTGGTATTTTACTATTAATCACCCATAAATTGATAATTATCACACCCATAAATTGATATTGCCTCTGATCATAGTCAGACCAACATTGCTACGACCCGTATTCGCACCGACAC | – | -7.24 ± 1
12 | ACATTTGTTGATATAATTATCATTTTATGGTTGCAACCATAAAATGATAATTATCATAATTATCATTTTATGGTTGCTCTGATCATAGTCAGACCAACATTGCTACGACCCGTATTCGCACCGACAC | – | -2.78 ± 0.3
13 | ACATTTGTTGATATAATTATCATTTTATGGTTGTAATTATCATTTTATGGTTGTCACAACCATAAAATGATAATTACTCTGATCATAGTCAGACCAACATTGCTACGACCCGTATTCGCACCGACAC | – | -6.264 ± 0.019
14 | ACATTTGTTGATATGTCAACCATAAAATGATAATTACACCCATAAATTGATAATTATCACACCCATAAATTGATATTGCCTCTGATCATAGTCAGACCAACATTGCTACGACCCGTATTCGCACCGA | – | -2.13 ± 0.23
15 | ACATTTGTTGATATGTTGCAACCATAAAATGATAATTACACCCATAAATTGATAATTATCACACCCATAAATTGATATTGCCTCTGATCATAGTCAGACCAACATTGCTACGACCCGTATTCGCACC | – | -6.84 ± 0.38
16 | ACATTTGTTGATGCAACCATAAAATGATAATTAATAATTATTTATAATCAGCAACTTAACCACAAAACACCCATAAATTGATAATTAACAAAACACCCATAAATTGATATTGCCTCTGATCATAGTC | – | -4.62 ± 0.92
17 | ACATTTGTTGATGCAACCATAAAGTGATATTTAATAATTATTTATAATCAGCAACTTAACCACAAAACAACCATATATTGATATCTCACAAAACAACCATAAGTTGATATTTTCTCTGATCATAGTC | < -10 | –
18 | ACATTTGTTGCAACCATAAAATGATAATTACACCCATAAATTGATAATTATCACACCCATAAATTGATATTGCCTCTGATCATAGTCAGACCAACATTGCTACGACCCGTATTCGCACCGACACTGA | – | -7.1 ± 0.91
19 | CAAAATGTAAAAAAAACCATACGTTGATTTTACGAAACCATACGCTGAAATAAAAACAACCATACCTTGAAATTGCTTATAAAGTGTACAACACTTGAGAAAGTTTACTACAGGTATGCACCGACAC | < -10 | –
20 | CAAAATGTTGATAAAACCATACGTTGATTTTACGAAACCATACGCTGAAATAAAAACAACCATACCTTGAAATTGCTTATAAAGTGTACAACACTTGAGAAAGTTTACTACAGGTATGCACCGACAC | – | -9.08 ± 1.1
